Reference: PMC12416549 (2024)

T1: TNFR1 (Homo sapiens, UniProt P19438)
T1 chain: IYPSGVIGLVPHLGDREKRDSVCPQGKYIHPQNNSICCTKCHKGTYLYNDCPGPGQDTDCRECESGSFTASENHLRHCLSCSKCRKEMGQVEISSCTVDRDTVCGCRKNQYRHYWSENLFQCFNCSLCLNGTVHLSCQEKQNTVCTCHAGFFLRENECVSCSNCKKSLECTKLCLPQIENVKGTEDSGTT


Target: T1, TNFR1
Experiment: yeast display SC50

apparent Kd (screen) [nM] | Binder
2.05 | R65T (designed binder) SMEEEVEKAAKEYEKKKKEAIEKHLEKLKAKDKEAAERFLKELEEAAKEYAKDEAKTMSEEEAKTRAKKYKEKVLLSELSEEEQKEIKEAEEKLVRTILKYVEEAAK
13.8 | Y13P (designed binder) SMEEEVEKAAKEPEKKKKEAIEKHLEKLKAKDKEAAERFLKELEEAAKEYAKDEAKTMSEEEAKRRAKKYKEKVLLSELSEEEQKEIKEAEEKLVRTILKYVEEAAK
0.593 | R66D (designed binder) SMEEEVEKAAKEYEKKKKEAIEKHLEKLKAKDKEAAERFLKELEEAAKEYAKDEAKTMSEEEAKRDAKKYKEKVLLSELSEEEQKEIKEAEEKLVRTILKYVEEAAK
1.4 | A10Q (designed binder) SMEEEVEKAQKEYEKKKKEAIEKHLEKLKAKDKEAAERFLKELEEAAKEYAKDEAKTMSEEEAKRRAKKYKEKVLLSELSEEEQKEIKEAEEKLVRTILKYVEEAAK
0.869 | E103W (designed binder) SMEEEVEKAAKEYEKKKKEAIEKHLEKLKAKDKEAAERFLKELEEAAKEYAKDEAKTMSEEEAKRRAKKYKEKVLLSELSEEEQKEIKEAEEKLVRTILKYVWEAAK
2.25 | A46W (designed binder) SMEEEVEKAAKEYEKKKKEAIEKHLEKLKAKDKEAAERFLKELEEWAKEYAKDEAKTMSEEEAKRRAKKYKEKVLLSELSEEEQKEIKEAEEKLVRTILKYVEEAAK
1.69 | E72M (designed binder) SMEEEVEKAAKEYEKKKKEAIEKHLEKLKAKDKEAAERFLKELEEAAKEYAKDEAKTMSEEEAKRRAKKYKMKVLLSELSEEEQKEIKEAEEKLVRTILKYVEEAAK
0.446 | M2S (designed binder) SSEEEVEKAAKEYEKKKKEAIEKHLEKLKAKDKEAAERFLKELEEAAKEYAKDEAKTMSEEEAKRRAKKYKEKVLLSELSEEEQKEIKEAEEKLVRTILKYVEEAAK
0.869 | K8R (designed binder) SMEEEVERAAKEYEKKKKEAIEKHLEKLKAKDKEAAERFLKELEEAAKEYAKDEAKTMSEEEAKRRAKKYKEKVLLSELSEEEQKEIKEAEEKLVRTILKYVEEAAK
7.78 | E7V (designed binder) SMEEEVVKAAKEYEKKKKEAIEKHLEKLKAKDKEAAERFLKELEEAAKEYAKDEAKTMSEEEAKRRAKKYKEKVLLSELSEEEQKEIKEAEEKLVRTILKYVEEAAK
16.7 | V74T (designed binder) SMEEEVEKAAKEYEKKKKEAIEKHLEKLKAKDKEAAERFLKELEEAAKEYAKDEAKTMSEEEAKRRAKKYKEKTLLSELSEEEQKEIKEAEEKLVRTILKYVEEAAK
7.07 | V95L (designed binder) SMEEEVEKAAKEYEKKKKEAIEKHLEKLKAKDKEAAERFLKELEEAAKEYAKDEAKTMSEEEAKRRAKKYKEKVLLSELSEEEQKEIKEAEEKLLRTILKYVEEAAK
15.2 | A63V (designed binder) SMEEEVEKAAKEYEKKKKEAIEKHLEKLKAKDKEAAERFLKELEEAAKEYAKDEAKTMSEEEVKRRAKKYKEKVLLSELSEEEQKEIKEAEEKLVRTILKYVEEAAK
2.05 | L99I (designed binder) SMEEEVEKAAKEYEKKKKEAIEKHLEKLKAKDKEAAERFLKELEEAAKEYAKDEAKTMSEEEAKRRAKKYKEKVLLSELSEEEQKEIKEAEEKLVRTIIKYVEEAAK
0.79 | K64C (designed binder) SMEEEVEKAAKEYEKKKKEAIEKHLEKLKAKDKEAAERFLKELEEAAKEYAKDEAKTMSEEEACRRAKKYKEKVLLSELSEEEQKEIKEAEEKLVRTILKYVEEAAK
1.4 | E61S (designed binder) SMEEEVEKAAKEYEKKKKEAIEKHLEKLKAKDKEAAERFLKELEEAAKEYAKDEAKTMSESEAKRRAKKYKEKVLLSELSEEEQKEIKEAEEKLVRTILKYVEEAAK
0.49 | E5L (designed binder) SMEELVEKAAKEYEKKKKEAIEKHLEKLKAKDKEAAERFLKELEEAAKEYAKDEAKTMSEEEAKRRAKKYKEKVLLSELSEEEQKEIKEAEEKLVRTILKYVEEAAK
6.43 | E91W (designed binder) SMEEEVEKAAKEYEKKKKEAIEKHLEKLKAKDKEAAERFLKELEEAAKEYAKDEAKTMSEEEAKRRAKKYKEKVLLSELSEEEQKEIKEAWEKLVRTILKYVEEAAK
12.5 | A63Y (designed binder) SMEEEVEKAAKEYEKKKKEAIEKHLEKLKAKDKEAAERFLKELEEAAKEYAKDEAKTMSEEEYKRRAKKYKEKVLLSELSEEEQKEIKEAEEKLVRTILKYVEEAAK
15.2 | A67E (designed binder) SMEEEVEKAAKEYEKKKKEAIEKHLEKLKAKDKEAAERFLKELEEAAKEYAKDEAKTMSEEEAKRREKKYKEKVLLSELSEEEQKEIKEAEEKLVRTILKYVEEAAK
0.446 | L94F (designed binder) SMEEEVEKAAKEYEKKKKEAIEKHLEKLKAKDKEAAERFLKELEEAAKEYAKDEAKTMSEEEAKRRAKKYKEKVLLSELSEEEQKEIKEAEEKFVRTILKYVEEAAK
1.4 | L76V (designed binder) SMEEEVEKAAKEYEKKKKEAIEKHLEKLKAKDKEAAERFLKELEEAAKEYAKDEAKTMSEEEAKRRAKKYKEKVLVSELSEEEQKEIKEAEEKLVRTILKYVEEAAK
1.05 | M2F (designed binder) SFEEEVEKAAKEYEKKKKEAIEKHLEKLKAKDKEAAERFLKELEEAAKEYAKDEAKTMSEEEAKRRAKKYKEKVLLSELSEEEQKEIKEAEEKLVRTILKYVEEAAK
29.5 | Y50A (designed binder) SMEEEVEKAAKEYEKKKKEAIEKHLEKLKAKDKEAAERFLKELEEAAKEAAKDEAKTMSEEEAKRRAKKYKEKVLLSELSEEEQKEIKEAEEKLVRTILKYVEEAAK
2.73 | E62I (designed binder) SMEEEVEKAAKEYEKKKKEAIEKHLEKLKAKDKEAAERFLKELEEAAKEYAKDEAKTMSEEIAKRRAKKYKEKVLLSELSEEEQKEIKEAEEKLVRTILKYVEEAAK
26.9 | E49Y (designed binder) SMEEEVEKAAKEYEKKKKEAIEKHLEKLKAKDKEAAERFLKELEEAAKYYAKDEAKTMSEEEAKRRAKKYKEKVLLSELSEEEQKEIKEAEEKLVRTILKYVEEAAK
